# Data: the supplement of paper PMC10126150
# ± gives the standard deviation of the averaged measurements.
# Tested on: ATP
# Experiment: switch fluorescence ratio, 500 uM ATP over buffer (Cy3 cluster intensity, sum of 5 cycles each) (fold (ratio)); higher = stronger signal-on switching upon ATP binding; sequences stand for … in TCGTCGGCAGCGTCAGATGTGTATAAGAGACAGTTTTTTTTTTTTTTTTTTTTTTTTT…TC
# Conditions: aptamer strand: ATP DNA aptamer (quencher-CACCTGGGGGAGTATTGCGGAGGAAGG + anchor), 100 nM annealed; ATP concentration: 500 uM
# In short: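 Five buffer/ATP imaging cycles were run on Cy3-labelled switching-strand clusters on a modified Illumina MiSeq flow-cell, with NaOH stripping and re-annealing between cycles. In each cycle, clusters annealed to 100 nM quencher-labelled ATP aptamer were imaged in selection buffer, then after 15 min with 500 uM ATP at 22 °C. Per cluster, the fluorescence ratio is summed target-cycle over summed buffer-cycle Cy3 intensity, averaged per switch-domain sequence. Only clusters within 100-1000 RFU were kept.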
# 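Note: ATP exposure 15 min at 22 °C before imaging.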
row,Sequence,switch fluorescence ratio
1,TTCAAACATC,1 ± 0.015
2,TTCAAATTGG,1 ± 0.043
3,TTCAAATTTT,1.01 ± 0.015
4,TTCAAGGAGG,0.978 ± 0.016
5,TTCAAGGGGG,1 ± 0.018
6,TTCAAGGTCA,1.02 ± 0.028
7,TTCAAGTGGG,0.9848 ± 0.0028
8,TTCAATAGAA,0.998 ± 0.0029
9,TTCAATGCTC,2.17 ± 0.82
10,TTCACAAGGT,1.004 ± 0.0049
11,TTCACATACG,1.51 ± 0.03
12,TTCACGAAGA,1 ± 0.0015
13,TTCACTGGGG,1.05 ± 0.012
14,TTCACTTTTG,1.01 ± 0.028
15,TTCAGAAACA,1.04 ± 0.037
16,TTCAGAGAAA,0.98 ± 0.034
17,TTCAGAGGCG,1.04 ± 0.011
18,TTCAGCAAT,5.31 ± 0.8
19,TTCAGCCCGG,0.986 ± 0.056
20,TTCAGCTACA,1.02 ± 0.029
21,TTCAGCTGAG,0.9861 ± 0.0091
22,TTCAGGAGGG,0.991 ± 0.042
23,TTCAGGCCTT,1.04 ± 0.059
24,TTCAGGCTTT,1.01 ± 0.011
25,TTCAGGTACT,1.06 ± 0.019

row,Sequence,switch fluorescence ratio
1,TTCAGTCCGG,1.01 ± 0.026
2,TTCATATACT,1.06 ± 0.034
3,TTCATATCAT,1 ± 0.03
4,TTCATCGAGC,1.019 ± 0.0076
5,TTCATCGGCA,1.35 ± 0.47
6,TTCATCTGCA,2.19 ± 1.5
7,TTCATGATTT,1.034 ± 0.0045
8,TTCATGGTAT,0.991 ± 0.031
9,TTCATTATGG,1.004 ± 0.0049
10,TTCATTATTT,1 ± 0.024
11,TTCATTGGTT,0.998 ± 0.038
12,TTCATTTTGA,0.967 ± 0.015
13,TTCCAGGGGA,1.08 ± 0.11
14,TTCCAGGGTG,1.71 ± 0.92
15,TTCCATGGCA,1.037 ± 0.0056
16,TTCCATTTGT,1.031 ± 0.0019
17,TTCCCAGCAG,1.68 ± 0.65
18,TTCCCCCCAA,1.76 ± 0.74
19,TTCCCGGGGG,1.06 ± 0.067
20,TTCCCGGGGT,1.2 ± 0.32
21,TTCCCGGTGT,1.75 ± 0.041
22,TTCCCTAATG,1 ± 0.033
23,TTCCCTGAGA,0.977 ± 0.025
24,TTCCGAAATG,1.63 ± 0.17
25,TTCCGAGTTC,1.15 ± 0.13

row,Sequence,switch fluorescence ratio
1,TTCCGGCGCT,3.42 ± 1.1
2,TTCCGGGAAA,0.968 ± 0.031
3,TTCCGGGCTA,1.47 ± 0.62
4,TTCCGGTCCG,1.16 ± 0.18
5,TTCCGGTTTG,0.999 ± 0.054
6,TTCCGTTAGA,1.06 ± 0.017
7,TTCCGTTGAA,1.05 ± 0.044
8,TTCCTAGGGA,0.994 ± 0.046
9,TTCCTCTCGG,1.17 ± 0.18
10,TTCCTTCGAT,1.51 ± 0.062
11,TTCCTTGCGG,1.08 ± 0.057
12,TTCCTTGGAG,1.01 ± 0.047
13,TTCCTTTTAA,1.04 ± 0.055
14,TTCGAAAAAA,1.06 ± 0.14
15,TTCGAAAAAT,1.05 ± 0.064
16,TTCGAAACGA,1.1 ± 0.14
17,TTCGAAAGGT,1.1 ± 0.2
18,TTCGAAATT,1.02 ± 0.035
19,TTCGAGAGGG,0.981 ± 0.028
20,TTCGAGATCT,1.16 ± 0.11
21,TTCGAGCATT,1.39 ± 0.17
22,TTCGAGGTTT,0.982 ± 0.059
23,TTCGATCTGA,0.955 ± 0.012
24,TTCGATTTGC,1.01 ± 0.022
25,TTCGCAGGAT,1.1 ± 0.027

row,Sequence,switch fluorescence ratio
1,TTCGCCGGCC,1.26 ± 0.34
2,TTCGCGGCAC,2.44 ± 1.3
3,TTCGCGGGCT,0.996 ± 0.028
4,TTCGCTGCCT,1.03 ± 0.019
5,TTCGCTGTAT,1.01 ± 0.011
6,TTCGGACCAA,1.46 ± 0.096
7,TTCGGAGCTG,1.07 ± 0.14
8,TTCGGAGTAC,1.38 ± 0.14
9,TTCGGAGTCT,0.985 ± 0.094
10,TTCGGATATT,1.13 ± 0.23
11,TTCGGCGCGG,1.21 ± 0.32
12,TTCGGCTCGA,1.05 ± 0.034
13,TTCGGCTGGG,0.98 ± 0.034
14,TTCGGGAAAA,0.982 ± 0.016
15,TTCGGGAGAG,0.996 ± 0.071
16,TTCGGGGTAG,0.963 ± 0.048
17,TTCGGGGTTA,1.01 ± 0.018
18,TTCGGGGTTG,0.96 ± 0.015
19,TTCGGGTCCT,1.02 ± 0.031
20,TTCGGGTGTG,0.999 ± 0.025
21,TTCGGTAGGG,0.926 ± 0.053
22,TTCGGTTATG,1.01 ± 0.033
23,TTCGGTTGGG,0.986 ± 0.029
24,TTCGTAGACT,0.991 ± 0.017
25,TTCGTGATAG,1.308 ± 0.0028
